In patent US20240247072A1 (KEYMED BIOSCIENCES, published 2024):

T1: human CD70, full length, on CHO cells (CHO-human CD70-B07) (human, UniProt P32970 1-193)
T1 construct: whole, on cells; Stably transfected CHO cells; also called CHO-CD70
T1 sequence (looked up): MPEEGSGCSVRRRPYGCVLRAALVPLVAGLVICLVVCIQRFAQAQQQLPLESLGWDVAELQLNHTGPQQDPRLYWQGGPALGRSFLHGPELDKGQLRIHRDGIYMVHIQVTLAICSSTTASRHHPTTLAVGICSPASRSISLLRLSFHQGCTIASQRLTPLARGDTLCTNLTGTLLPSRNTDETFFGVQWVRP

T2: cynomolgus monkey CD70, full length, on CHO cells (CHO-monkey CD70-D01) (cynomolgus monkey, UniProt A0A2K5WTU9 1-190)
T2 construct: whole, on cells; Stably transfected CHO cells; also called CHO-cynomolgus monkey CD70
T2 sequence: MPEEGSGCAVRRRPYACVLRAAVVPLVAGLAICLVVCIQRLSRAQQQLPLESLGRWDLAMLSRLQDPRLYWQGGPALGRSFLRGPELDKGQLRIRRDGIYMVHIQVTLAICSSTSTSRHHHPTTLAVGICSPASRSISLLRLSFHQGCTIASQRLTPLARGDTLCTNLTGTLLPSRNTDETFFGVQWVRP

T3: recombinant trimeric protein of human CD70 extracellular region (human CD70 mIgG Fc (knob) / mouse IgG Fc … (human, UniProt P01863 98-330 = IgG part))
T3 construct: The ELISA and Octet texts say only 'recombinant CD70 protein' / 'CM352 antigen'; also called recombinant human CD70 protein; recombinant CD70 protein
T3 chain 1: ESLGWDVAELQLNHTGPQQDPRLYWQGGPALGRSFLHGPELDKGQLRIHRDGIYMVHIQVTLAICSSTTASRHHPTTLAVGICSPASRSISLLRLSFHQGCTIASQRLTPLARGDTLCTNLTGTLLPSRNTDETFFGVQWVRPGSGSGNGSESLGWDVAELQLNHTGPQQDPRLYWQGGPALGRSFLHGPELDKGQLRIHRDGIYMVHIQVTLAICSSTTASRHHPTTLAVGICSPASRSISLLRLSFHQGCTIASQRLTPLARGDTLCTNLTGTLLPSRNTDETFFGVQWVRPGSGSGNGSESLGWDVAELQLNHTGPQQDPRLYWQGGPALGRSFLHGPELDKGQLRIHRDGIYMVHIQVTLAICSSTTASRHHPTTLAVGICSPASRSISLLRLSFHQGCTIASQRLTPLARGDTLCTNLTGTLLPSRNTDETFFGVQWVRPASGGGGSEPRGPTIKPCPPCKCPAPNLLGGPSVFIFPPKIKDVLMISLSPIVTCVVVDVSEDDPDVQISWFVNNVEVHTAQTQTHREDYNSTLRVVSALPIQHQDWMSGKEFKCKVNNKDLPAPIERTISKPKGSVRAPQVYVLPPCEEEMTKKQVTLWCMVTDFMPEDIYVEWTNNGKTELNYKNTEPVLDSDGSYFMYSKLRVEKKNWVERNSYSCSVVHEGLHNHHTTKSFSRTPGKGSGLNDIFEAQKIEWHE
T3 chain 2: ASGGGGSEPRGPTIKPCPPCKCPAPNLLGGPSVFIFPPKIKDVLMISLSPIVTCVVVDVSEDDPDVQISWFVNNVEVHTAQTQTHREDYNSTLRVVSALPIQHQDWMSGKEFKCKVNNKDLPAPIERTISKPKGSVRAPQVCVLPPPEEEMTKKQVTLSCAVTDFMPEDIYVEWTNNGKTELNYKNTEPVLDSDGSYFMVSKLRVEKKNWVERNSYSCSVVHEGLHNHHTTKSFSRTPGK

T4: recombinant cynomolgus monkey CD70 protein (cynomolgus monkey, UniProt A0A2K5WTU9 39-190)
T4 construct: it stands only in column heads ('Monkey', 'Cynomolgus Monkey CD70/CD27') and in result sentences; also called Monkey (ELISA)
T4 sequence: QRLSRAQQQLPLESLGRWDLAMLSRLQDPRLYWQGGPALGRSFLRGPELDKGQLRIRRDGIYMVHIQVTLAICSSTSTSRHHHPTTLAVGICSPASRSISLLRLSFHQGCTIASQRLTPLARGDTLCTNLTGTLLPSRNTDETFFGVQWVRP


Experiments:
[1] = molecular target: T1, human CD70, full length, on CHO cells …; assay: flow cytometry, chimeric IgG on CHO-human CD70 cells
Protocol: (§1) Different cells in logarithmic growth phase were taken, blocked with 3% BSA for 30 minutes, and plated to a 96-well U-plate at 5×10⁴ cells/100 μL. The centrifuge was performed at 1100 rpm for 3 minutes. The supernatant was discarded and the cells were gently tapped to be loosening. 50 μL of gradient diluted antibody was added (antibody concentration: from 30 μg/mL, 3-fold dilution for 5 gradients) per well, and incubated at 4° C. for 1 hour. After incubation, 180 μL of 0.5% BSA was added to each well for washing 3 times. 30 μL/well of secondary antibody AlexaFluro647 anti-human IgG (Jackson Immuno Research, Cat. No: 109-606-170) was added and incubated at 4° C. for 45 minutes. At the end of the incubation, each well was washed 3 times with 180 μL of 0.5% BSA and finally resuspended in 50 μL of PBS for iQue (Intellicyt, USA) assay.

[2] = molecular target: T2, cynomolgus monkey CD70, full length, on …; assay: flow cytometry, chimeric IgG on CHO-cynomolgus monkey CD70 cells
Protocol: as §1

[3] = molecular target: T3, recombinant trimeric protein of human …; assay: competition ELISA, chimeric IgG titrated, CD27 coated, biotin-CD70, human pair
Protocol: (§2) The recombinant CD27 protein was coated at 1 μg/mL in a 96-well microtiter plate and incubated overnight at 4° C. The next day, the plate was washed 3 times with PBS, added with 200 μL of 2% defatted dry milk/PBS, blocked at room temperature for 2 hours, and washed once with PBS. The purified chimeric antibody was divided to 12 concentration gradients starting at 100 nM and diluted in a 1:3 gradient. […] of the antibody was added per well and incubated at room temperature for 30 minutes. […] The plate was washed 3 times with PBST and PBS and dried by spinning. A secondary antibody Streptavidin-coupled horseradish peroxidase SA-HRP (BD bioscience, cat. No: 6222697) was diluted with 0.5% BSA in a ratio of 1:8000. 100 μL of the diluent was added into each well and incubated at room temperature for 30 minutes. The plate was washed 3 times with PBST and PBS and dried by spinning. 100 μl of color development solution (TMB solution, Sigma, Cat. No: T2885) was added into each well and protected from light at 37° C. for reaction. After the substrate developed moderately, 50 μl of H₂SO₄ was added into each well to terminate the reaction. The OD450 nm was determined by using an enzyme-linked detector within 30 minutes, and the data was collected. The results were calculated by using Graph Pad Prism 5 software.

[4] = molecular target: T4, recombinant cynomolgus monkey CD70 …; assay: competition ELISA, chimeric IgG titrated, CD27 coated, biotin-CD70, cynomolgus pair
Protocol: as §2

[5] = molecular target: T4, recombinant cynomolgus monkey CD70 …; assay: competition ELISA, humanized IgG1 titrated, CD27 coated, biotin-CD70, cynomolgus pair
[6] = molecular target: T2, cynomolgus monkey CD70, full length, on …; assay: flow cytometry, humanized IgG1 on CHO-cynomolgus monkey CD70 cells
Protocol: (§3) The supernatant was discarded and the cells were gently tapped to be loosening. 50 μL of gradient diluted antibodies were added (antibody concentration: from 30 μg/mL, 3-fold dilution for 8 gradients) per well, and incubated at 4° C. for 1 hour. After incubation, 200 μL of 0.5% BSA was added to each well for washing 3 times. 50 μL/well of secondary antibody Alexa Fluro647 anti-human IgG (Jackson ImmunoResearch, Cat. No: 109-606-170) was added and incubated at 4° C. for 45 minutes. At the end of the incubation, each well was washed 3 times with 180 μL of 0.5% BSA and finally resuspended in 50 μL of PBS for iQue (Intellicyt) assay.

[7] = molecular target: T1, human CD70, full length, on CHO cells …; assay: flow cytometry, humanized IgG1 on CHO-human CD70 cells
Protocol: as §3

[8] = molecular target: T3, recombinant trimeric protein of human …; assay: competition ELISA, humanized IgG1 titrated, CD27 coated, biotin-CD70, human pair
Protocol: The recombinant human CD27 protein was coated at 1 μg/mL in a 96-well microtiter plate and incubated overnight at 4° C. The next day, the plate was washed 3 times with PBS, added with 200 μL of 2% defatted dry milk/PBS, blocked at room temperature for 2 hours, and washed once with PBS. […] 30 μl of the antibody was added per well and incubated at room temperature for 30 minutes. […] The plate was washed 3 times with PBST and PBS and dried by spinning. A secondary antibody solution Streptavidin-coupled horseradish peroxidase SA-HRP (BD bioscience, Cat. No: 6222697) was diluted with 0.5% BSA in a ratio of 1:8000. 100 μL of the diluent was added into each well and incubated at room temperature for 30 minutes. The plate was washed 3 times with PBST and PBS and dried by spinning. […] of color development solution (TMB solution, Sigma, Cat. No: T2885) was added into each well and protected from light at 37° C. for reaction. After the substrate developed moderately, […] of H₂SO₄ was added into each well to terminate the reaction. The OD450 nm was determined using an enzyme-linked detector within 30 minutes, and the data was collected. The results were calculated by using Graph Pad Prism 5 software. See FIG. 10-1, 10-2, and Table 12 for the results.

[9] = molecular target: T3, recombinant trimeric protein of human …; assay: cell-based or functional assay

EC50 [1] [nM]	EC50 [2] [nM]	IC50 [3] [nM]	IC50 [4] [nM]	IC50 [5] [nM]	EC50 [6] [nM]	EC50 [7] [nM]	IC50 [8] [nM]	Inhibition of IL-8 secretion IC50(nM), HT1080-human CD27 cells stimulated with recombinant human CD70 [9] [nM]	Binder
22.5	21	0.17	0.21						26G11 chimeric antibody (antibody, V domains shown) VH: QVQLQQSGPELVKPGASVKISCKTSGYTFADYTMHWVRQSQGKSLEWIGDIYPNDGGPNNNQKFKDKATLTVDKSSSTAYMELRSLTSEDSAVYYCARPFYYGNYAGFAFWGQGTLVTVSA VL: EMVLTQSPAIMSASPGEKVTMTCSASSSVSYMYWYQQKPGSSPRLLIYDTSNLASGVPVRFSGSGSGTSYSLTISRMEAEDAATYYCQQWSSYPLTFGAGTRLEIK
				0.05	5.78	2	0.04	10.7	humanized antibody Ab001 (antibody, human IgG1, V domains shown, also called h39H5 VHv1 + h39H5 VKv1) VH: QIQLVQSGSELKKPGASVKVSCKASGYTFTNYGMNWVRQAPGQGLEWMGWINTYTGEPTYADGFTGRFVFSLDTSASTAYLQISSLKAEDTAVYFCAREEDYRYVFNYWGQGTLVTVSS VL: DIQMTQSPSSLSASVGDRVTITCQASQDISNYLNWYQQKPGKAPKLLIYDTSRLHAGVPSRFSGSGSGTDYTFTISSLQPEDIATYFCQQGVTLPLTFGQGTKLEIK
				0.05	3.14	2.57	0.04	9.92	humanized antibody Ab007 (antibody, human IgG1, V domains shown, also called Ab007 IgG1; h39H5 VHv3 + h39H5 VKv1) VH: QVQLVQSGSELKKPGASVKVSCKASGYTFTNYGMNWVRQAPGQGLEWMGWINTYTGEPTYADGFTGRFVFSLDTSASTAYLQISSLKAEDTAVYYCAREEDYRYVFNYWGQGTLVTVSS VL: DIQMTQSPSSLSASVGDRVTITCQASQDISNYLNWYQQKPGKAPKLLIYDTSRLHAGVPSRFSGSGSGTDYTFTISSLQPEDIATYFCQQGVTLPLTFGQGTKLEIK
16.1	17.4	0.16	0.15						25H7 chimeric antibody (antibody, V domains shown) VH: EIQLVQSGPELKKPGETVKISCKASGYTFTNYGMNWVKQTPGKGLKWMGWINTDTGEPTYADDFKGRFAFSLETSASTAYLQINNLKNEDMATYFCAREEDYRYVFNYWGQGTTLTVSS VL: DIQMTQTTSSLSASLGDRVTISCRASQDISNYLNWYQQKPDGTVKLLIYYTSRLHSGVPSRFSGSGSGTDYSLTISNLEQEDIATYFCQQGVTLPLTFGAGTKLELK
